B1: Uncharacterized protein YpfA (Bacillus subtilis), P38491 (parent)
chain: MIEIGENVLLEYIEENELKKAKSKAVSIENNELLIAYPVDVVTGRTVILHNDMEVTVEFVGKDEVPYRFISRIKGKVKDKLQMICLEMPPREKMKRIQRRQYVRTDAVLDVQIQPGNEEEIRTLSYNISAGGIAVVLADGLSFQSGESLRLIIRLPEEEHTRQIETEAVVRRIFNDPKSEKRKMTLEYSEIAAGDQQALLQYCIRRQLNKRRKARME
partner: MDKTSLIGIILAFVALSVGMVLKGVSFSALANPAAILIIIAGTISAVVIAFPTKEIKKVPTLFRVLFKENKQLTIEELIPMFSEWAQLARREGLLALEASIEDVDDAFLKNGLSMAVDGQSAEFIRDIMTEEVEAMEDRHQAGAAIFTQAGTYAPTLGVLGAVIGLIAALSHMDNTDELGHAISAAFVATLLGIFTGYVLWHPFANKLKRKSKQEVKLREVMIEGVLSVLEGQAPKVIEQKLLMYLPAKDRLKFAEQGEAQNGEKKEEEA

Variants of: B1
Details: with mota_bacsu motA

Variant | effect of a mutation on the interaction
MIEIGENVLLEYIEENELKKAKSKAVSIENNELLIAYPVDVVTGRTVILHNDMEVTVEFVGKDEVPYRFISRIKGKVKDKLQMICLEMPPREKMKRIQRRQYVRTDAVLDVQIQPGNEEEIRTLSYAISAGGIAVVLADGLSFQSGESLRLIIRLPEEEHTRQIETEAVVRRIFNDPKSEKRKMTLEYSEIAAGDQQALLQYCIRRQLNKRRKARME [N127A] | disrupting interaction
MIEIGENVLLEYIEENELKKAKSKAVSIENNELLIAYPVDVVTGRTVILHNDMEVTVEFVGKDEVPYRFISRIKGKVKDKLQMICLEMPPREKMKRIQRRQYVRTDAVLDVQIQPGNEEEIRTLSYNISAGAIAVVLADGLSFQSGESLRLIIRLPEEEHTRQIETEAVVRRIFNDPKSEKRKMTLEYSEIAAGDQQALLQYCIRRQLNKRRKARME [G132A] | disrupting interaction

Next, values leading:

effect of a mutation on the interaction | Variant
disrupting interaction | MIEIGENVLLEYIEENELKKAKSKAVSIENNELLIAYPVDVVTGRTVILHNDMEVTVEFVGKDEVPYRFISRIKGKVKDKLQMICLEMPPREKMKRIQRRQYVDTDAVLDVQIQPGNEEEIRTLSYNISAGGIAVVLADGLSFQSGESLRLIIRLPEEEHTRQIETEAVVRRIFNDPKSEKRKMTLEYSEIAAGDQQALLQYCIRRQLNKRRKARME [R104D]
disrupting interaction | MIEIGENVLLEYIEENELKKAKSKAVSIENNELLIAYPVDVVTGRTVILHNDMEVTVEFVGKDEVPYRFISRIKGKVKDKLQMICLEMPPREKMKRIQRFQYVRTDAVLDVQIQPGNEEEIRTLSYNISAGGIAVVLADGLSFQSGESLRLIIRLPEEEHTRQIETEAVVRRIFNDPKSEKRKMTLEYSEIAAGDQQALLQYCIRRQLNKRRKARME [R100F]

Source: IntAct's records for PubMed 22821967
